Assay results published in US20240254239A1 (LAEKNA THERAPEUTICS SHANGHAI, published 2024).

T1: human ANTXR1 ECD (human, UniProt Q9H6X2 33-321)
T1 construct: extracellular domain; also called recombinant extracellular domain of ANTXR1
T1 sequence (looked up): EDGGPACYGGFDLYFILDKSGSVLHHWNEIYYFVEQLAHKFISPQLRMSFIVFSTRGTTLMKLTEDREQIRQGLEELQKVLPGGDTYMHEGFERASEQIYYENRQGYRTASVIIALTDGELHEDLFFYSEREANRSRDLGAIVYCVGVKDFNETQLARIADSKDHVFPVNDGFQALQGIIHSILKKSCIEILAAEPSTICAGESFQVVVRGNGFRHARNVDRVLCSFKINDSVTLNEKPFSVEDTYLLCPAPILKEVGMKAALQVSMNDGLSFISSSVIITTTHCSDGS

T2: human CD248 ECD (human, UniProt Q9HCU0 18-687)
T2 construct: extracellular domain; also called recombinant extracellular domain of CD248
T2 sequence (looked up): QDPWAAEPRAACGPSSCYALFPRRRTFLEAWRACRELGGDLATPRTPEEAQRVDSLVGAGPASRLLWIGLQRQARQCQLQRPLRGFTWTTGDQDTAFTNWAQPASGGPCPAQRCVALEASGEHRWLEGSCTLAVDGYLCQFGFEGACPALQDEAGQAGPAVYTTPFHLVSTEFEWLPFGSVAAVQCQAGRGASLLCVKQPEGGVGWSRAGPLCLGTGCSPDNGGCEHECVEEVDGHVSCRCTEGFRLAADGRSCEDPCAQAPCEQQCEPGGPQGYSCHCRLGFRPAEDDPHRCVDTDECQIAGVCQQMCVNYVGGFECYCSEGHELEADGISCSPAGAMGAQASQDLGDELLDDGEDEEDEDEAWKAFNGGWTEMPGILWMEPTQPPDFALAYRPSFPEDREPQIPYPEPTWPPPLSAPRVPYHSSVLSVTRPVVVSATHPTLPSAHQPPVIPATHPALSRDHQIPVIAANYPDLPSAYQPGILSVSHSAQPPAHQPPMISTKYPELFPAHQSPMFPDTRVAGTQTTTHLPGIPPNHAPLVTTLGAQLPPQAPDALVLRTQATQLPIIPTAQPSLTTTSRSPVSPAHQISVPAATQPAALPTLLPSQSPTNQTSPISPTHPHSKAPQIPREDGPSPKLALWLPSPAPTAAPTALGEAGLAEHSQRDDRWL


Tests used:
human uPAR ECD = biological target: T3, human uPAR ECD (human, UniProt Q03405 23-305, limits assumed); test: direct ELISA on coated recombinant ECD (30 ng/well), HRP-conjugated secondary antibody, luminescence
T3 construct: extracellular domain; also called recombinant extracellular domain of uPAR
Description: (§1) Briefly, recombinant extracellular domain of PDGFRb, FAPα, ULBP1, uPAR, IGF1R, SIRPA, PD-L1, ANTXR1, CD248, or GPC3 (30 ng/well) was coated on white optiplate™-384 well HB plate. After overnight coating, standard direct ELISA assay was performed. Luminescence signal was detected after using secondary antibody with HRP conjugated. Binding activity of each antibody was determined based on dose dependent binding curve.

human ANTXR1 ECD = biological target: T1, human ANTXR1 ECD; test: as above
Description: as §1

human CD248 ECD = biological target: T2, human CD248 ECD; test: as above
Description: as §1

[1] = biological target: T4, IGF-1R on TGFb1-activated primary human HSC cells (human, UniProt P08069 31-1367); test: flow cytometry on TGFb1-activated primary human HSC cells, 10 ug/ml antibody, fluorophore-conjugated secondary antibody
T4 construct: whole, on cells
Description: Relative expression levels of the antigens on activated HSC were assayed using FACS. Human primary hepatic stellate cells (ScienCell, 5301) were cultured in culture medium (ScienCell, 5300). The cells were activated using 2 ng/ml human TGFb1 (Sinobiological, 10804-HNAC) for 24 hours. These cells were then collected for FACS assay. Briefly, the cells were incubated with 10 μg/ml primary antibody in blocking buffer (10% FBS in PBS) at 4 °C for 1 hour. After two rounds of PBS washes, the cells were stained with secondary antibody conjugated with a fluorophore. The mean fluorescence intensity was measured using FACS. Among the antigens tested, fibroblast activation protein alpha (FAPα) was expressed at relatively high levels, while uPAR, IGF-1R, GPC3, CD248 and NKG2D ligands were expressed at relatively low levels on TGFb1-activated HSC cells.

T4 sequence (P08069 31-1367): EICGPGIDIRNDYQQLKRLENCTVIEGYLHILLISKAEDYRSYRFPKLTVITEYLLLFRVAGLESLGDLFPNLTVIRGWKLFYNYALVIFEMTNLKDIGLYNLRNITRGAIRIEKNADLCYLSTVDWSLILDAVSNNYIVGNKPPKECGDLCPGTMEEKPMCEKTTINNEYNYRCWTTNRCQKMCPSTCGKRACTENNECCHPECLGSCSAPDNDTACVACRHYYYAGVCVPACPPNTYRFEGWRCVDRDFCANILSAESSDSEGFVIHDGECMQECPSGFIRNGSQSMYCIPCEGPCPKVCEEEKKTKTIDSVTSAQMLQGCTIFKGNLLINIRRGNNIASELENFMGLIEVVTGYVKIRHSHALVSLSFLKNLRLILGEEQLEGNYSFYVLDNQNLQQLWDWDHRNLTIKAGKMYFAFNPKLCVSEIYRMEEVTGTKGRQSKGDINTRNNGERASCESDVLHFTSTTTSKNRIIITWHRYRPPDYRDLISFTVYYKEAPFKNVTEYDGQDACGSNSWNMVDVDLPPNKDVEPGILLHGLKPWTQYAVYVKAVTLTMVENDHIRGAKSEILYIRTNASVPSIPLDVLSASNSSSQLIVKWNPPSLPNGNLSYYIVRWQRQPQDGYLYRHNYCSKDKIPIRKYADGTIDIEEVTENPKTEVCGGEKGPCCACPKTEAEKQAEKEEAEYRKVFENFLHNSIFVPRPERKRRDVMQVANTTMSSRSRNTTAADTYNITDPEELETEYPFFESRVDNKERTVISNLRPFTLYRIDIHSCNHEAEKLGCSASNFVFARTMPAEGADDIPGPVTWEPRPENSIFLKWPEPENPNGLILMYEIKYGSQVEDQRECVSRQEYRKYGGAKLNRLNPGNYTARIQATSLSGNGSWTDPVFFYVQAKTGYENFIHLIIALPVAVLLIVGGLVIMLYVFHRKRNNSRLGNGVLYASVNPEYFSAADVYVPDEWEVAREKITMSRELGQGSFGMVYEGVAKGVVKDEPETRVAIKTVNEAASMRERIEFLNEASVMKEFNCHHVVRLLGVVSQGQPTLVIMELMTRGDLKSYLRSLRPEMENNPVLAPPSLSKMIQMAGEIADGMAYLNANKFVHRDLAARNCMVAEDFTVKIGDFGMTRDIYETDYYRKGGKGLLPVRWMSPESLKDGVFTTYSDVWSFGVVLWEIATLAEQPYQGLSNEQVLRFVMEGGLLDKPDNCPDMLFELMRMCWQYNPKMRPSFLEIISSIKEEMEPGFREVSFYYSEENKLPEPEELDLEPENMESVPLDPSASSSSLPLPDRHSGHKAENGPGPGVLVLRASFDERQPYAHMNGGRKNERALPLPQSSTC
T3 sequence (Q03405 23-305 limits assumed): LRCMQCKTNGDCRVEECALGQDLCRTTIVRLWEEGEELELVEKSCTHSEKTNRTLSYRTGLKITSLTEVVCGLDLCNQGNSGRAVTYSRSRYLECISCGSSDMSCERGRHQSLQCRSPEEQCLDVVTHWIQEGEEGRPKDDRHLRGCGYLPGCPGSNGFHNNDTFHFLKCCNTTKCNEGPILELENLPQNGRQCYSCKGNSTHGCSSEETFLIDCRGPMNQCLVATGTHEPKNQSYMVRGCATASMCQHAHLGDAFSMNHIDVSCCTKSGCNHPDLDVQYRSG

EC50 (read off the curve) (human ANTXR1 ECD) | binding result [1] | Binder | other results
 |  | α-uPAR 1 S239D/1332E (antibody, human IgG1, kappa, V domains shown, hIgG1 with S239D/I332E; also called α-uPAR 1 S239D/I332E; exemplary anti-uPAR antibody (α-uPAR 1)) VH: QVQLVESGGGVVQPGRSLRLSCAASGFTFSSYGMHWVRQAPGKGLEWVAVIWYDGSNKYYADSVKGRFTISRDNSKNTLYLQMNSLRAEDTAVYYCARDQHIVVVTAILDYWGQGTLVTVSS VL: not shown | EC50 (read off the curve) (human uPAR ECD): ~0.03 µg/mL
~0.02 µg/mL |  | α-ANTXR1 2 mIgG2a S239D/1332E (antibody, V domains shown, mIgG2a with S239D/I332E; also called α-ANTXR1 2 mIgG2a S239D/I332E; exemplary anti-ANTXR1 antibody (α-ANTXR1 2)) VH: QVQLKESPGALVKPTQTLTLTCTFSGFSLSTSGGGVSWIRQPPGKALEWLAHIYSNDDKSYSTSLKTRLTISKDTSKNQVVLTMTNMDPVDTATYYCARGGYFLDYWGQGTLVTVSS VL: DIELTQPPSVSVAPGQTARISCSGDNIGGIYVHWYQQKPGQAPVLVIYADSKRPSGIPERFSGSNSGNTATLTISGTQAEDEADYYCQSYDITSLVFGGGTKLTVLG | 
 |  | α-CD248 1 mIgG2a S239D/1332E (antibody, V domains shown, mIgG2a with S239D/I332E; also called α-CD248 1 mIgG2a S239D/I332E; exemplary anti-CD248 antibody (α-CD248 1)) VH: QVQLQESGPGLVAPSQSLSITCTVSGFSLTGYGVNWVRQPPEKGLEWLGMIWVDGSTDYNSALKSRLNISKDKSKSQVFLKMNSLQTDDTARYYCARGGYGAMDYWGQGTSVTVSS VL: DIQMNQSPSSLSASLGDTITITCHASQNINVWLTWYQQKPGNIPKLLIYKASNLHTGVPSRFSGSGSGTGFTLTISSLQPEDIATYYCQQGQSYPWTFGGGTKLEIKR | EC50 (read off the curve) (human CD248 ECD): ~0.04 µg/mL
 | binds | α-IGF1R 2 S239D/1332E (antibody, human IgG1, kappa, V domains shown, hIgG1 with S239D/I332E; also called α-IGF1R 2 S239D/I332E; exemplary anti-IGF1R antibody (α-IGF1R 2)) VH: EVQLLESGGGLVQPGGSLRLSCAASGFTFSNYPMYWVRQAPGKGLEWVSRISSSGGRTVYADSVKGRFTISRDNSKNTLYLQMNSLRAEDTAVYYCARDRWSRSAAEYGLGGYWGQGTLVTVSS VL: not shown | 
 | binds | α-IGF1R 1 S239D/1332E (antibody, human IgG1, kappa, V domains shown, hIgG1 with S239D/I332E; also called α-IGF1R 1 S239D/I332E; exemplary anti-IGF1R antibody (α-IGF1R 1)) VH: EVQLLESGGGLVQPGGSLRLSCAASGFTFSIYRMQWVRQAPGKGLEWVSGISPSGGTTWYADSVKGRFTISRDNSKNTLYLQMNSLRAEDTAVYYCARWSGGSGYAFDIWGQGTMVTVSS VL: DIQMTQSPLSLSASVGDRVTITCQASRDIRNYLNWYQQKPGKAPKLLIYDASSLQTGVPSRFGGSGSGTDFSFTIGSLQPEDIATYYCQQFDSLPHTFGQGTKLEIKR | 
~0.01 µg/mL |  | α-ANTXR1 1 mIgG2a S239D/1332E (antibody, V domains shown, mIgG2a with S239D/I332E; also called α-ANTXR1 1 mIgG2a S239D/I332E; exemplary anti-ANTXR1 antibody (α-ANTXR1 1)) VH: QVQLVQSGAEVKKPGTSVKVSCKVPGYTFSSYAISWVRQAPGQGLEWMGGIIPIFGTTNYAQKFQGRVTITGEESTSTVYMELSSLRSEDTAVYYCARDTDYMFDYWGQGTLVTVSS VL: SSELTQDPVVSVALGETVSITCQGDNLRDFYASWYQQKPGQAPLLVMYGKNRRPSGIPDRFSGSTSGNTLSLTITGAQAEDEADYYCSSRDNSKHVVFGGGTKVTVLG | 
